54 molecules from PMC314469, “Protein Interaction Networks by Proteome Peptide Scanning” (PLoS Biology, 2004) can be followed below.

The chains are these.
T1: Abp1 SH3 (ABP1_YEAST), P15891
T1 chain: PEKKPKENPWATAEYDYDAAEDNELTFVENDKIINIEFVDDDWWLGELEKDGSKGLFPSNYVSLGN

In the assay the target is T1, Abp1 SH3 (ABP1_YEAST), P15891. Nature of the assay: SPOT array.
In turn, PKPKVQIPGLNRP [YDR266C 579-591] gave a normalised SPOT signal, Boehringer light units (BLU); mean over the file's lines of this peptide of 38700.
The same measure for PPLTKEGPTSKKP [YCR094W 11-23]: 200; for PIIKWFGPLEYKP [YCL044C 243-255]: 85.4.
The same measure for PESKSPRVTTPLKP [YJR083C 40-53]: 140; for PEPMKNLTNRPKRP [YNL216W 571-584]: 913; for PDYIRSIAVHPTKP [YGL137W 97-110]: 51.9.
The same measure for PEMLHVKDHQPGKP [YDR433W 131-144]: 120; for PDEVLTKMNAPQKP [YCR004C 43-56]: 81.4; for PLDLVKNIKLPAKP [YDL019C 243-256]: 383.
For the molecule PKMISNRRPVPRRP [YPR091C 655-668], the normalised SPOT signal, Boehringer light units (BLU); mean over the file's lines of this peptide was found to be 5500.
On to PQLHDYLPTLERP [YCR034W 17-29], for which the normalised SPOT signal, Boehringer light units (BLU); mean over the file's lines of this peptide came out at 0.
Next, PAGINDSPSPVKP [YGR092W 45-57]: 117; PFEMVTEVPIPRRP [YGR156W 131-144]: 688.
Next, PMVGLVDPDKLKP [YOR117W 130-142]: 234.
Turning to PKIPRLVPHWEKP [YNL009W 115-127], the normalised SPOT signal, Boehringer light units (BLU); mean over the file's lines of this peptide is 520.
As to PKKRGRKPKDPSKP [YML065W 327-340], the normalised SPOT signal, Boehringer light units (BLU); mean over the file's lines of this peptide was found to be 32.6.
Next, PITVEYPNEYPSKP [YDL064W 59-72]: 96.3; PLYDGNSITPPVKP [YMR016C 338-351]: 110; NVTDPLAAIYPSRP [YGR237C 285-298]: 40.9.
Next, PANSTNNSNEPIRP [YMR081C 97-110]: 131; PPPPPPPPPSSKP [YMR109W 1073-1085]: 117; PGEMLMRIFFPKKP [YBR041W 461-474]: 561.
The same measure for PITGDVETNEPTKP [YMR042W 16-29]: 28.9.
Consider PFKTSSTPTTPERP [YHR182W 754-767], for which the normalised SPOT signal, Boehringer light units (BLU); mean over the file's lines of this peptide came out at 138.
The same measure for NVTKETKEILPVKP [YCL014W 801-814]: 43; for PLVSSNKQSNPMRP [YER064C 414-427]: 1040; for PNERIISFEFPERP [YER086W 492-505]: 64.1.
PKTSIIYANLPNRP [YMR047C 1028-1041]: the normalised SPOT signal, Boehringer light units (BLU); mean over the file's lines of this peptide was found to be 97.2.
Molecule PLPFELRSKLPTKP [YHL029C 305-318] yielded a normalised SPOT signal, Boehringer light units (BLU); mean over the file's lines of this peptide of 2670.
Molecule PDSSFDKVETPPKP [YDR085C 528-541] returned a normalised SPOT signal, Boehringer light units (BLU); mean over the file's lines of this peptide of 196.
Molecule NVTFRRDPNSFRP [YDR091C 569-581] registered a normalised SPOT signal, Boehringer light units (BLU); mean over the file's lines of this peptide of 363.
The same measure for PNSDRLQLLEPFKP [YJL200C 564-577]: 98.6; for NYNSNNNAGSPIRP [YGL073W 519-532]: 58.5.
Next, NYVALWAKFFPEKP [YGR024C 108-121]: 103; NVYKIYNHVMPLKP [YNL236W 155-168]: 0; PQNRVQAPTAYKP [YBL013W 258-270]: 287.
Next, PETREASLDIPYKP [YFL011W 29-42]: 16.9.
The molecule PKRRAPPPVPKKP [YIR003W 384-396] had a normalised SPOT signal, Boehringer light units (BLU); mean over the file's lines of this peptide of 110000.
Next, PFHVQETMDFPYKP [YLR072W 386-399]: 53; PPLIGSGPGSHKP [YLR176C 127-139]: 192.
With NVSSSSQPASSRP [YBL081W 344-356], the normalised SPOT signal, Boehringer light units (BLU); mean over the file's lines of this peptide was found to be 136.
Next, NYSIKYMLLEPSKP [YPL008W 555-568]: 103; PAKQKTPPSPAKP [YBR102C 23-35]: 557; PPPQQAQSLQPLKP [YIR006C 205-218]: 188.
With PKTMAKIPVSVKP [YGL035C 180-192], the normalised SPOT signal, Boehringer light units (BLU); mean over the file's lines of this peptide was 1630.
PDLRLTKSGKPKKP [YDR464W 659-672] gave a normalised SPOT signal, Boehringer light units (BLU); mean over the file's lines of this peptide of 131.
The same measure for PSYSDTHLHGPFKP [YER134C 18-31]: 80.2.
As to PKKPFFTPWKPRP [YNL137C 417-429], the normalised SPOT signal, Boehringer light units (BLU); mean over the file's lines of this peptide was 1330.
Next, PIANTQYGDIPVRP [YOL004W 624-637]: 67; PNNNGITPVEKKP [YJL123C 260-272]: 0.
As to PLKPKMLPIPSKP [YPL243W 529-541], the normalised SPOT signal, Boehringer light units (BLU); mean over the file's lines of this peptide stood at 14100.
The same measure for PKQTIHVLEQPDRP [YDR158W 295-308]: 62.2; for PMVNQYSPTRGRP [YJL060W 83-95]: 2140.
PIMKFSTPSYKKP [YKL064W 123-135] came in with a normalised SPOT signal, Boehringer light units (BLU); mean over the file's lines of this peptide of 726.
